# According to patent US20170051285A1, “COMPOSITIONS AND METHODS OF USING SAME FOR REDUCING RESISTANCE TO MOSQUITO LARVICIDES” (priority 2014, published 2017):
# “Also recorded” adds a separate entry of the source. Like-named read-outs stand apart in the source and are kept apart here.
# Tests used:
# Type in all cases: in vivo, Aedes aegypti
# [1] = tested on: Ae. aegypti larvae (Rockefeller and Rio de Janeiro strains); test: Temephos larval susceptibility bioassay (WHO methodology)
# Experimental: (§1) First (L1), Second (L2) or Third (L3) instar larvae were treated (in groups of 100 larvae) in a final volume of 3 mL of autoclaved water with sodium channel (AAEL008297), PgP (AAEL010379), Ago3 (AAEL007823), and Aub (AAEL007698) dsRNA (0.5 μg/μL), or AAEL005112, AAEL003446, AAEL007815 and AAEL002202 dsRNA (0.1 μg/μL). The control group was kept in 3 ml sterile water only. Larvae were soaked in the dsRNA solutions for 24 hours at 27° C., and were then transferred into new containers (200 larvae/1000 mL of chlorine-free tap water), which were also maintained at 27° C., and provided […] lab dog/cat diet (Purina Mills) suspended in water as a source of food on a daily basis. After soaking procedure, the larvae were reared until third instar and divided in […] with 10-20 larvae in each cup (final volume of 100 mL) or were divided immediately after soaking. Six replicas were treated with the lethal concentration 50 (0.00573 ppm) of temephos and 2 replicas with ethanol only (control group). Mortality was recorded after 24 and 48 hours. See Flowcharts 1 and 2 (FIGS. 1 and 2, respectively).
# Susceptibility tests were carried out according to the methodology proposed by the World Health Organization (WHO). In order to characterize the status of Temephos resistance in Ae. aegypti (Rio de Janeiro) strain, the present inventors first determined the lethal concentration LC99 (concentration able to kill 99% of the larvae) using the susceptible strain (Rockfeller) (see FIG. 5: 0.01401 ppm). Then, bioassays with the Rio de Janeiro strain were performed using a diagnostic concentration of 0.0282 ppm of Temephos, which corresponded to twice the lethal concentration, 99% (LC99), determined for this susceptible strain. According to WHO, when the field population is treated with the diagnostic dose and the mortality rates are equal to or higher than 98%, the population is considered susceptible, between 80% and 98%, with alterations in susceptibility, and below 80%, resistant [WHO (1981) WHO/VBC/81.807]. […]
# [2] = tested on: Ae. aegypti female mosquitoes (Rockefeller and Rio de Janeiro strains); test: CDC bottle bioassay with deltamethrin, adult females; details: 2 μg/mL deltamethrin; for mortality at 2 µg/mL: Aedes aegypti, read-out: mortality at diagnostic dosage
# Experimental: FIGS. 14A-C are graphs illustrating the dose-response curves for 3- to 5-day-old Aedes aegypti female mosquitoes on insecticide-susceptible Rockefeller strain (FIG. 14A) and on insecticide-resistant Rio de Janeiro strain (FIG. 14B). Mosquitoes were exposed to different concentrations of deltamethrin in 250-mL glass bottles for up to 24 hours and the percentage of mortality for each time point is shown. FIG. 14C, comparison of the mortality rates of female mosquitoes from Rockefeller (Rock) and Rio de Janeiro (RJ) strains exposed to 2 μg/mL of deltamethrin for different time-points. Data represent mean values of three replicates with standard deviation.
# Bottles were prepared following the Brogdon and McAllister (1998) protocol [Brogdon and McAllister (1998) Emerg Infect Dis 4:605-613]. Fifteen-twenty non-blood-fed females from each site were introduced in 250 mL glass bottles impregnated with different concentrations of deltamethrin (Sigma-Aldrich) in 1 ml acetone. Each test consisted of four impregnated bottles and one control bottle. The control bottle contained acetone with no insecticide. At least three tests were conducted for each insecticide and population. Immediately prior to use, all insecticide solutions were prepared fresh from stock solutions. At 15, 30 and 45 min intervals, the number of live and dead mosquitoes in each bottle was recorded. The mortality criteria included mosquitoes with difficulties flying or standing on the bottle's surface. Mosquitoes that survived the appropriate dose for insecticide were considered to be resistant [Brogdon and McAllister (1998), supra].
# Therefore, it was concluded that 36.05% of the mosquitoes in this population (RJ) are resistant to deltamethrin.
# [3] = tested on: P-glycoprotein (AAEL010379) mRNA; test: qPCR of P-glycoprotein mRNA after dsRNA treatment of larvae
# Experimental: as §1
# (§2) Approximately 1000 ng first-strand cDNA obtained as described previously was used as template. The qPCR reactions were performed using SYBR® Green PCR Master Mix (Applied Biosystems) following the manufacturer's instructions. […] Raw quantification cycle (Cq) values normalized against those of the tubulin and S7 standards were then used to calculate the relative expression levels in samples using the 2^−ΔΔCt method previously described [Livak & Schmittgen (2001) Methods. […]
# (§3) Approximately 1000 ng first-strand cDNA obtained as described previously was used as template. […] Raw quantification cycle (Cq) values normalized against those of the tubulin and S7 standards were then used to calculate the relative expression levels in samples using the 2^−ΔΔCt method [Livak & Schmittgen, (2001) Methods. […]
# [4] = tested on: A. aegypti 3rd instar larvae, Rockefeller strain; test: Larvae feeding with food-containing dsRNA and bioassay with diflubenzuron; details: diflubenzuron 2.5 μg/L
# Experimental: FIG. 9A, 3rd instar larvae of Rockefeller strain were exposed to diflubenzuron (DBZ) pestanal larvicide (2.5 μg/L) in plastic cups containing 100 mL of dechlorinated tap water and fed simultaneously with dsRNA-containing food. Larval mortality was determined each 3 days. FIG. 9B, larvae were soaked with Sodium channel dsRNAs and exposed to diflubenzuron as described in FIG. 9A. Effects of diflubenzuron on adult emergence is shown as the percentage of emergence inhibition (100-100(T/C), where T is emergence (%) in DBZ-treated groups and C is emergence (%) in control groups. *p<0.01 (ANOVA, bar=S.D, n=4).
# 3rd instar larvae of Rockefeller strain were exposed to diflubenzuron (DBZ) pestanal larvicide (2.5 μg/L) in plastic cups containing 100 mL of dechlorinated tap water and fed simultaneously with dsRNA-containing food targeting PgP (FIG. 10A) or dsRNA-containing food targeting Sodium channel (FIG. 10B). Larval mortality was determined each 3 days. […]
# Third instar larvae (in groups of 10 larvae) were exposed to one concentration (2.5 μg/L) of diflubenzuron pestanal (Sigma) in a final volume of 100 mL of chlorine-free tap water. […] The inhibition of emergence (%) was calculated according to the following formula: 100-100(T/C) where T is percent emergence in treated groups and C is percent emergence in control groups [Mulla et al. (1974) Proc. Papers Calif. […]
# [5] = tested on: Argonaute-3 (AAEL007823) mRNA; test: qPCR of Ago-3 mRNA after dsRNA treatment of larvae
# Experimental: as §1, §2, §3
# [6] = 24 and 48 hours after end of 24 hour soaking of 3rd instar larvae
# [7] = soaked as third instar larvae, reared until adult stage
molecule,measurement,setting,value
COP(=S)(OC)Oc1ccc(Sc2ccc(OP(=S)(OC)OC)cc2)cc1 [Temephos],mortality at 0.0282 ppm,"[1]; Aedes aegypti, read-out: mortality at diagnostic concentration",60%
same,lethal concentration 50,"[1]; LC50 used to treat third instar larvae, strain not stated",0.00573 ppm
same,lethal concentration LC99 (concentration able to kill 99% of the larvae),[1]; susceptible strain (Rockfeller),0.01401 ppm
CC1(C)[C@H](C(=O)O[C@H](C#N)c2cccc(Oc3ccccc3)c2)[C@@H]1C=C(Br)Br [deltamethrin],mortality at 2 µg/mL,[2]; Rio de Janeiro strain,64%
same,mortality at 2 µg/mL,[2]; Rockfeller strain,100%
same,mosquitoes of the population resistant to deltamethrin,[2]; Rio de Janeiro (RJ) population,36.05%
"P-glycoprotein dsRNA: dsRNA targeting Ae. aegypti P-glycoprotein gene AAEL010379, SEQ ID NO: 184 (nucleic acid, double stranded RNA) TGGAAAAGTTGACATTGACGGGATCACGACAACTGATTTCCAGCTTGGCCGCATACGTTCACAAATGGGTCTCGTATCGCAAGAACCTGTTCTGTTTGATCGCACCATCGCGGAAAATATTGCTTATGGTGACAACACTCGCGAGATAAGCATGCCGGAGATAATCGAGGCATCCAAAATGGCAAACATTCACGAATTCATCGTCAATCTACCGAAGGGGTATGACACTAGCCTAGGAACCAAAGGAGCTCAATTGTCTGGTGGCCAAAAGCAACGTATTGCTATAGCTCGTGCTTTGGTTAGAAATCCACGAATCC",PgP mRNA levels after the end of dsRNA treatment (FIG. 19A),[3]; [6],decreased mRNA levels
same,P-glycoprotein mRNA expression by qPCR (FIG. 7),"[3]; larvae soaked 24 hours in dsRNA, temephos bioassay at third instar, versus water",induced gene silencing; also recorded: decrease in mRNA expression level
same,PgP mRNA expression in adult mosquitoes (FIG. 20A),[3]; [7],reached normal levels
same,viability of mosquito larvae 4 days after treatment with DBZ (FIGS. 10A-B),[4]; fed agarose cubes with 20 μg dsRNA once a day for 4 days,reduced significantly the viability of mosquito larvae
same,susceptibility to diflubenzuron: larvae mortality and adult emergence (FIGS. 9A-B),[4]; fed dsRNA-containing food simultaneously,increases its susceptibility to diflubenzuron insecticide
"Ago-3 dsRNA: dsRNA targeting Ae. aegypti Argonaute-3 gene AAEL007823, SEQ ID NO: 185 (nucleic acid, double stranded RNA) CCCCGTCGACGGCCACGAAGTTACGATCAAGATCATTTACAAGCGCAAACAGCGAATGAGCGAGAACATTCAATTCTACAACATTCTCTTCCAACGCATTATGAAAGTCCTGAAGATGGTCGAGATGGGTCGTAAGAACTTTGACCCCTCGGCCCCGAAACTGATTCCGCAGCATCGTCTGGAGATCTGGCCGGGATACGTTAGCGCTGTGGACGAATATGAGGGCGGCTTGATGTTGAATCTCGACGTGTCCCATCGTGTGCTGCTCCAGACGACGGTTTTGGATCACATCCGAACGCTGGCAAGGGCCAATCCCCAAGATTACAAAAACATGGCCACCAAATCGCTGCTGGGAGCCGTTATATTGACCCGA",Ago3 mRNA levels after the end of dsRNA treatment (FIG. 19B),[5]; [6],decreased mRNA levels
same,Ago-3 mRNA expression by qPCR (FIG. 8B),"[5]; RJ third instar larvae soaked 24 hours, after treatment with Temephos, versus water",induced gene silencing; also recorded: reduction in the mRNA levels
same,Ago3 mRNA expression in adult mosquitoes (FIG. 20B),[5]; [7],reached normal levels
